Earlier results in paper PMC11105488.

Key:
FGFR1c (Homo sapiens) = FGFR1c (Homo sapiens) (UniProt P11362)
FGFR2c (Homo sapiens) = FGFR2c (Homo sapiens) (UniProt P21802)
FGFR4 (Homo sapiens) = FGFR4 (Homo sapiens) (UniProt P22455)
UniProt P22455, sequence (P22455 22-369): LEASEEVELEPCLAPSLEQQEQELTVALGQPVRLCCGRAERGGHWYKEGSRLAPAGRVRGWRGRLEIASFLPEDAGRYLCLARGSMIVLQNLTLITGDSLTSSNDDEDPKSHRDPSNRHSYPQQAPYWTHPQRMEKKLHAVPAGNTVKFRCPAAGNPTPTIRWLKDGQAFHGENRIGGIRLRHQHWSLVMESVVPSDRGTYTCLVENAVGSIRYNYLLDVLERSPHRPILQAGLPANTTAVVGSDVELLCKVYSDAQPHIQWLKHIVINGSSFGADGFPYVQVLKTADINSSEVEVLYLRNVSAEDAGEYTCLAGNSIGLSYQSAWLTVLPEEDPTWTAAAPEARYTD

UniProt P21802, sequence (P21802 22-377): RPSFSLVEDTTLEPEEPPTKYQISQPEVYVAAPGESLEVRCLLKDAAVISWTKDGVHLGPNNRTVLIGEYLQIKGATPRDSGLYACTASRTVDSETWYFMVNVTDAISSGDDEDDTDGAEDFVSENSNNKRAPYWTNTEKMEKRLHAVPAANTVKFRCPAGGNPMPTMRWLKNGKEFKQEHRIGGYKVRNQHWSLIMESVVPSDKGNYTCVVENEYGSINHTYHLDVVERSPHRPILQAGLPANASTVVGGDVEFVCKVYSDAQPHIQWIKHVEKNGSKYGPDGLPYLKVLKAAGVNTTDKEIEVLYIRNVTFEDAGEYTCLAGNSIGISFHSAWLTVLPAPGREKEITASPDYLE
UniProt P11362, sequence (P11362 22-376): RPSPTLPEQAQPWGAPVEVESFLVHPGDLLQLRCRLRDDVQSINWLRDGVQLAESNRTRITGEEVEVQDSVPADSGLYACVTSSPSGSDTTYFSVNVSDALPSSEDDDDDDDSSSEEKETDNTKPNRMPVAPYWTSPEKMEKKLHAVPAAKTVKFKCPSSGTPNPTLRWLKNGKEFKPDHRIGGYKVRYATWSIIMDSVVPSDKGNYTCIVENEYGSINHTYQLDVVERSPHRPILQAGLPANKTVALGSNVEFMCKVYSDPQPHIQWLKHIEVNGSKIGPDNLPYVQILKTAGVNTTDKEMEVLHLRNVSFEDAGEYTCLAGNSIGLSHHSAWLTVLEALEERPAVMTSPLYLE

With FGF23 (from UniProt Q9GZV9) as the substance, how does the Kd (FGFR1c (Homo sapiens)) read?
The Kd was 700 nM.

And the Kd (FGFR2c (Homo sapiens))?
Its Kd is 200 nM.

And the Kd (FGFR4 (Homo sapiens))?
The Kd was 200 nM.
